For 1 substance, stoichiometry N results are on record in article PMC2156174.

This assay concerns the target endogenous Tom40 (N. crassa (endogenous in isolated mitochondria)) (UniProt P24391). In words: cross-linking.

The stoichiometry N is the number of molecules, sites or subunits per partner or assembly. Substance “endogenous Tom40 (from UniProt P24391 1-349) (natural protein)” had a stoichiometry N of 2.
